Results reported in the RNAGym collection of RNA variant scans (doi:10.7554/elife.80360).

B1: HDV Ribozyme (parent)
chain: GGCCGGCAUGGUCCCAGCCUCCUCGCUGGCGCCGGCUGGGCAACAUUCCGAGGGGACCGUCCCCUCGGUAAUGGCGAAUGGGACCCA

Variants of: B1
Assay: self-cleavage, relative activity (ratio to wild type); higher = more cleavage; co-transcriptional

Variant | self-cleavage
GGCCGGCAUGGUCCCAGCCUCCUCGCUGGCGCCGGCUGGGCAACAUUCCGAGGGAAUCGUCCCCUCGGUAAUGGCGAAUGGGACCCA [G55A C57U] | 0.925
GGCCGGCAUGGUCCCAGCCUCCUCGCUGGCGCCGGCUGGGCAACAUUCCGAGGGAACCGUCCCCUCGGUACUGGCGAAUGGGACCCA [G55A A71C] | 0.978
GGCCGGCAUGGUCCCAGCCUCCUCGCUGGCGCCGGCUGGGCAACAUUCCGAGGGAACCGUCCCCUCGGUAGUGGCGAAUGGGACCCA [G55A A71G] | 1.1
GGCCGGCAUGGUCCCAGCCUCCUCGCUGGCGCCGGCUGGGCAACAUUCCGAGGGAACCGUCCCCUCGGUAUUGGCGAAUGGGACCCA [G55A A71U] | 0.652
GGCCGGCAUGGUCCCAGCCUCCUCGCUGGCGCCGGCUGGGCAACAUUCCGAGGGAACCGUCCCCUCGGUAAUGGCGAACGGGACCCA [G55A U79C] | 0.511
GGCCGGCAUGGUCCCAGCCUCCUCGCUGGCGCCGGCUGGGCAACAUUCCGAGGGAACCGCCCCCUCGGUAAUGGCGAAUGGGACCCA [G55A U60C] | 0.9
GGCCGGCAUGGUCCCAGCCUCCUCGCUGGCGCCGGCUGGGCAACAUUCCGAGGGAACCGUCCUCUCGGUAAUGGCGAAUGGGACCCA [G55A C63U] | 0.913
GGCCGGCAUGGUCCCAGCCUCCUCGCUGGCGCCGGCUGGGCAACAUUCCGAGGGCACCGUCCCCUCGGUAAUGGCGGAUGGGACCCA [G55C A77G] | 1.1
GGCCGGCAUGGUCCCAGCCUCCUCGCUGGCGCCGGCUGGGCAACAUUCCGAGGGCACCGUCCCCUCGGUAAUGGCGCAUGGGACCCA [G55C A77C] | 0.495
GGCCGGCAUGGUCCCAGCCUCCUCGCUGGCGCCGGCUGGGCAACAUUCCGAGGGCACCGUCCCCGCGGUAAUGGCGAAUGGGACCCA [G55C U65G] | 1.06
GGCCGGCAUGGUCCCAGCCUCCUCGCUGGCGCCGGCUGGGCAACAUUCCGAGGGCAACGUCCCCUCGGUAAUGGCGAAUGGGACCCA [G55C C57A] | 1.06
GGCCGGCAUGGUCCCAGCCUCCUCGCUGGCGCCGGCUGGGCAACAUUCCGAGGGAACCGUCCCUUCGGUAAUGGCGAAUGGGACCCA [G55A C64U] | 1.04
GGCCGGCAUGGUCCCAGCCUCCUCGCUGGCGCCGGCUGGGCAACAUUCCGAGGGAACCGUCACCUCGGUAAUGGCGAAUGGGACCCA [G55A C62A] | 1.01
GGCCGGCAUGGUCCCAGCCUCCUCGCUGGCGCCGGCUGGGCAACAUUCCGAGGGAACCGUCUCCUCGGUAAUGGCGAAUGGGACCCA [G55A C62U] | 1.03
GGCCGGCAUGGUCCCAGCCUCCUCGCUGGCGCCGGCUGGGCAACAUUCCGAGGGCCCCGUCCCCUCGGUAAUGGCGAAUGGGACCCA [G55C A56C] | 0.969
GGCCGGCAUGGUCCCAGCCUCCUCGCUGGCGCCGGCUGGGCAACAUUCCGAGGGCUCCGUCCCCUCGGUAAUGGCGAAUGGGACCCA [G55C A56U] | 1.01

Variant | self-cleavage
GGCCGGCAUGGUCCCAGCCUCCUCGCUGGCGCCGGCUGGGCAACAUUCCGAGGGCACCGUCCCCUCGGUAAUGGCGAAUGUGACCCA [G55C G81U] | 0.256
GGCCGGCAUGGUCCCAGCCUCCUCGCUGGCGCCGGCUGGGCAACAUUCCGAGGGAACCGUCCCCUCGGUAAUGGCGAAUGGUACCCA [G55A G82U] | 0.241
GGCCGGCAUGGUCCCAGCCUCCUCGCUGGCGCCGGCUGGGCAACAUUCCGAGGGCACCGUCCCCUCGGUAGUGGCGAAUGGGACCCA [G55C A71G] | 0.912
GGCCGGCAUGGUCCCAGCCUCCUCGCUGGCGCCGGCUGGGCAACAUUCCGAGGGAACCGUCCCCUCGGUAAUGGCGAAUGGGACCUA [G55A C86U] | 0.989
GGCCGGCAUGGUCCCAGCCUCCUCGCUGGCGCCGGCUGGGCAACAUUCCGAGGGAACCCUCCCCUCGGUAAUGGCGAAUGGGACCCA [G55A G59C] | 1.06
GGCCGGCAUGGUCCCAGCCUCCUCGCUGGCGCCGGCUGGGCAACAUUCCGAGGUUACCGUCCCCUCGGUAAUGGCGAAUGGGACCCA [G54U G55U] | 0.921
GGCCGGCAUGGUCCCAGCCUCCUCGCUGGCGCCGGCUGGGCAACAUUCCGAGGGCACCGUCCCCUCGGUAAUGGCGAAUGGAACCCA [G55C G82A] | 0.447
GGCCGGCAUGGUCCCAGCCUCCUCGCUGGCGCCGGCUGGGCAACAUUCCGAGGGCACCGCCCCCUCGGUAAUGGCGAAUGGGACCCA [G55C U60C] | 1.07
GGCCGGCAUGGUCCCAGCCUCCUCGCUGGCGCCGGCUGGGCAACAUUCCGAGGGCACCGUACCCUCGGUAAUGGCGAAUGGGACCCA [G55C C61A] | 1.06
GGCCGGCAUGGUCCCAGCCUCCUCGCUGGCGCCGGCUGGGCAACAUUCCGAGGGAACCGUCCCCUCGGUAAUGUCGAAUGGGACCCA [G55A G74U] | 0.541
GGCCGGCAUGGUCCCAGCCUCCUCGCUGGCGCCGGCUGGGCAACAUUCCGAGGGCACCGUCCACUCGGUAAUGGCGAAUGGGACCCA [G55C C63A] | 1.06
GGCCGGCAUGGUCCCAGCCUCCUCGCUGGCGCCGGCUGGGCAACAUUCCGAGGUGACCGUCCCCUCGGUAAUGGCGAAUGGGAACCA [G54U C84A] | 0.724
GGCCGGCAUGGUCCCAGCCUCCUCGCUGGCGCCGGCUGGGCAACAUUCCGAGGUGACCGUCCCCUCGGUAAUGGCGAAUGGGAGCCA [G54U C84G] | 0.529
GGCCGGCAUGGUCCCAGCCUCCUCGCUGGCGCCGGCUGGGCAACAUUCCGAGGUGACCGUCCCCUCGGUAAUGGCGAAUGGGAUCCA [G54U C84U] | 0.808
GGCCGGCAUGGUCCCAGCCUCCUCGCUGGCGCCGGCUGGGCAACAUUCCGAGGGCACCGUCCCCUCAGUAAUGGCGAAUGGGACCCA [G55C G67A] | 1.08
GGCCGGCAUGGUCCCAGCCUCCUCGCUGGCGCCGGCUGGGCAACAUUCCGAGGGCACCGUCCCCUCGCUAAUGGCGAAUGGGACCCA [G55C G68C] | 0.752
